Results: US20230174655A1 (published 2023)
Changes are numbered by the printed parent chain. In names and notes the source's numbering stands. One block for each binder: values may come before it.

Legend:
[1] = target: T1, FcγRIIb extracellular domain with C-terminal His tag (human, UniProt P31994 43-217); assay: SPR (Biacore), antibody captured, FcgR analyte
T1 construct: extracellular domain; also called FcRIIb; FcgRIIb; not shown: His tag at the C terminus
T1 sequence (looked up): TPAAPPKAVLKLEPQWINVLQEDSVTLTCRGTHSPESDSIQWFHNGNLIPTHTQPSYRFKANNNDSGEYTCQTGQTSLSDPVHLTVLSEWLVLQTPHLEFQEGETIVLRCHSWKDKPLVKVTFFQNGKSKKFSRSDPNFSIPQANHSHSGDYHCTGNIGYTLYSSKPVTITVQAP
From the text: (§1) In the table, SEQ ID NO refers to the SEQ ID NO of the H chain of the evaluated variant, and alteration refers to the alteration introduced into IL6R-B3 (SEQ ID NO: 40). […] Furthermore, KD(IIaR)/KD(IIb) and KD(IIaH)/KD(IIb) in the table respectively represent the value obtained by dividing the KD value of each variant for FcγRIIaR by the KD value of each variant for FcγRIIb, and the value obtained by dividing the KD value of each variant for FcγRIIaH by the KD value of each variant for FcγRIIb. KD(IIb) of the parent polypeptide/KD(IIb) of the altered polypeptide refers to the value obtained by dividing the KD value of the parent polypeptide for FcγRIIb by the KD value of each variant for FcγRIIb.
(§2) Kinetic analyses for calculating the KD values of each altered antibody for FcγR were performed according to the following method. First, antibodies of interest were captured onto the above-mentioned sensor chips, and an Fcγ receptor diluted with the running buffer was allowed to interact. The Biacore™ Evaluation Software was used to globally fit the measured results to the obtained sensorgram using the 1:1 Langmuir binding model, and the association rate constant ka (L/mol/s) and the dissociation rate constant kd (1/s) were calculated; and from those values the dissociation constants KD (mol/L) were calculated.

[2] = target: T2, FcγRIIa type R extracellular domain with C-terminal His tag (human, UniProt P12318 34-217); assay: SPR (Biacore), Reference Example 2
T2 construct: extracellular domain; also called FcγRIIa R; FcγRIIaR
T2 sequence (looked up): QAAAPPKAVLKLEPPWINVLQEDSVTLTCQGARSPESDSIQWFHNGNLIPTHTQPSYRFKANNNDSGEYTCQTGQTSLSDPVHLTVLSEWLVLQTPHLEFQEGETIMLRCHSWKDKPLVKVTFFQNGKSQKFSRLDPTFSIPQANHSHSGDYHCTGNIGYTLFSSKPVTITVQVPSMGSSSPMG
From the text: Furthermore, KD(IIaR)/KD(IIb) and KD(IIaH)/KD(IIb) in the table respectively show the value obtained by dividing the KD value of each variant for FcγRIIaR by the KD value of each variant for FcγRIIb, and the value obtained by dividing the KD value of each variant for FcγRIIaH by the KD value of each variant for FcγRIIb. KD(IIb) of the parent polypeptide/KD(IIb) of the altered polypeptide refers to a value obtained by dividing the KD value of the parent polypeptide for FcγRIIb by the KD value of each variant for FcγRIIb.
as §2

[3] = target: FcγRIIa type R extracellular domain with C-terminal His tag (human, UniProt P12318 34-217); assay: SPR (Biacore), antibody captured on chip, FcγR extracellular domain as analyte
From the text: as §1, §2

[4] = target: T3, FcγRIIIa type V extracellular domain with C-terminal His tag (human, UniProt P08637 17-208); assay: SPR (Biacore), antibody captured, FcgR analyte
T3 construct: extracellular domain; also called FcIIIaV; FcgRIIIaV; not shown: His tag at the C terminus
From the text: as §1, §2

[5] = target: T4, FcγRIIa type R extracellular domain with C-terminal His tag (human, UniProt P12318 34-217); assay: SPR (Biacore), antibody captured, FcgR analyte
T4 chain: T2 sequence (looked up)
From the text: as §1, §2

T3 sequence (P08637 17-208 F176V): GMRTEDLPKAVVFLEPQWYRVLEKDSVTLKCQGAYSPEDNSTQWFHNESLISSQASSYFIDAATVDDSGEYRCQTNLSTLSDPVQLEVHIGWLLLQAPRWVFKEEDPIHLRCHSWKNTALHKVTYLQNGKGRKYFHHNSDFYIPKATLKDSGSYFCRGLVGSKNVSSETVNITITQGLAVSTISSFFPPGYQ

B1: IL6R-2B251/IL6R-L (antibody, human IgG1, kappa)
heavy: QVQLQESGPGLVKPSETLSLTCAVSGHSISHDHAWSWVRQPPGEGLEWIGFISYSGITNYNPSLQGRVTISRDNSKNTLYLQMNSLRAEDTAVYYCARSLARTTAMDYWGEGTLVTVSSASTKGPSVFPLAPSSKSTSGGTAALGCLVKDYFPEPVTVSWNSGALTSGVHTFPAVLQSSGLYSLSSVVTVPSSSLGTQTYICNVNHKPSNTKVDKKVEPKSCDKTHTCPPCPAPDLLGGDSVFLFPPKPKDTLMISRTPEVTCVVVDVSHEDPEVKFNWYVDGVEVHNAKTKPREEQDNSTYRVVSVLTVLHQDWLNGKEYKCKVSNKALPAPIEKTISKAKGQPREPQVYTLPPSRDELTKNQVSLTCLVKGFYPSDIAVEWESNGQPENNYKTTPPVLDSDGSFFLYSKLTVDKSRWQQGNVFSCSVMHEALHNHYTQESLSLSP
light: not shown
notes: alteration printed: B233D/P238D/Y296D; also called ILGR-2B261/IL6R-L; copies: 2 + 2
Kd [1]: 10 µM

B2: IL6R-PD079/IL6R-L (antibody, human IgG1, kappa)
heavy: B1 heavy with D235E, G239A, M254Y, D298Y, N436Y, E441K
light: not shown
notes: H chain: IL6R-F11 with P238D/G237A (EU numbering); also called P238D/G237A; copies: 2 + 2
Kd [2]: 32 µM

B4: IL6R-2B253/IL6R-L (antibody, human IgG1, kappa)
heavy: B1 heavy with D298Y, V325M
light: not shown
notes: alteration printed: B233D/P238D/V323M; copies: 2 + 2
Kd [4]: 5 µM | Kd [5]: 0.05 µM

B7: IL6R-BF132/IL6R-L (antibody, human IgG1, kappa)
heavy: B1 heavy with D298Y, K328A, A332K
light: not shown
notes: alteration printed: B233D/P236D/K326A/A330K; copies: 2 + 2
Kd [4]: 50 µM | Kd [5]: 8 µM

B8: IL6R-BF196/IL6R-L (antibody, human IgG1, kappa)
heavy: B1 heavy with D235E, L236Y, H270D, P273G, D298Y, K328A, A332K
light: not shown
notes: alteration printed: L234Y/P236D/H258D/P271G/K326A/A330K; copies: 2 + 2
Kd [4]: 5.1 µM | Kd [5]: 0.03 µM

B12: IL6R-BF189/IL6R-L (antibody, human IgG1, kappa)
heavy: B1 heavy with D235E, G239D, H270D, P273G, D298Y, K328A, A332K
light: not shown
notes: alteration printed: G237D/P238D/H268D/P271D/K326A/A330K; copies: 2 + 2
Kd [5]: 1.4 µM

B13: IL6R-BF192/IL6R-L (antibody, human IgG1, kappa)
heavy: B1 heavy with H270D, P273G, A332K
light: not shown
notes: alteration printed: B233D/P238D/H268D/P271G/Y296D/A330K; copies: 2 + 2
Kd [5]: 2.8 µM

B15: IL6R-BF180/IL6R-L (antibody, human IgG1, kappa)
heavy: B1 heavy with D235E, G239D, P273G, D298Y, A332K
light: not shown
notes: alteration printed: G237D/P238D/P271G/A330K; copies: 2 + 2
Kd [4]: 7 µM | Kd [5]: 1.2 µM

B17: IL6R-BF187/IL6R-L (antibody, human IgG1, kappa)
heavy: B1 heavy with D235E, L236Y, P273G, D298Y, K328A, A332K
light: not shown
notes: alteration printed: L234Y/P238D/P271G/K326A/A330K; copies: 2 + 2
Kd [5]: 2.8 µM

B18: IL6R-BF084/IL6R-L (antibody, human IgG1, kappa)
heavy: B1 heavy with D235E, D298Y, V325M, A332K
light: not shown
notes: alteration printed: 9238D/Y325M/A330K; copies: 2 + 2
Kd [4]: 6.7 µM

Results, then the binder that gave them:

Kd [3]: 0.035 µM
B3: IL6R-BF212/IL6R-L (antibody, human IgG1, kappa)
heavy: B1 heavy with H270D, P273G, A332R
light: not shown
notes: Anti-IL-6 receptor IgG1 Fc variant; 'B233D' is read as E233D

Kd [2]: 21 µM
B5: IL6R-PD080/IL6R-L (antibody, human IgG1, kappa)
heavy: B1 heavy with D235E, G239D, M254Y, D298Y, N436Y, E441K
light: not shown
notes: H chain: IL6R-F11 with P238D/G237D (EU numbering); also called P238D/G237D; copies: 2 + 2

Kd [5]: 0.88 µM
B6: IL6R-BF197/IL6R-L (antibody, human IgG1, kappa)
heavy: B1 heavy with L236Y, G239D, H270D, P273G, K328D, A332K
light: not shown
notes: alteration printed: B233D/L234Y/G237D/P238D/H268D/P271G/Y296D/Y326D/A330K; copies: 2 + 2

Kd [2]: 7.9 µM
B9: IL6R-PD095/IL6R-L (antibody, human IgG1, kappa)
heavy: B1 heavy with D235E, G239Y, M254Y, D298Y, N436Y, E441K
light: not shown
notes: H chain: IL6R-F11 with P238D/G237Y (EU numbering); also called P238D/G237Y; copies: 2 + 2

Kd [2]: 26 µM
B10: IL6R-PD043/IL6R-L (antibody, human IgG1, kappa)
heavy: B1 heavy with D235E, L236Y, M254Y, D298Y, N436Y, E441K
light: not shown
notes: H chain: IL6R-F11 with P238D/L234Y (EU numbering); also called P238D/L234Y; copies: 2 + 2

Kd [5]: 4.5 µM
B11: IL6R-BF204/IL6R-L (antibody, human IgG1, kappa)
heavy: B1 heavy with P273G, D298Y, K328A, A332R
light: not shown
notes: alteration printed: B233D/P238D/P271G/K326A/A330R; copies: 2 + 2

Kd [2]: 7.2 µM
B14: IL6R-PD094/IL6R-L (antibody, human IgG1, kappa)
heavy: B1 heavy with D235E, G239W, M254Y, D298Y, N436Y, E441K
light: not shown
notes: H chain: IL6R-F11 with P238D/G237W (EU numbering); also called P238D/G237W; copies: 2 + 2

Kd [1]: 40 µM | Kd [5]: 0.84 µM
B16: IL6R-BF201/IL6R-L (antibody, human IgG1, kappa)
heavy: B1 heavy with G239D, P273G, D298Y, A332R
light: not shown
notes: alteration printed: E233D/G237D/P238D/P271G/A330R; copies: 2 + 2

Kd [4]: 6.9 µM | Kd [5]: 3.1 µM
B19: IL6R-BF206/IL6R-L (antibody, human IgG1, kappa)
heavy: B1 heavy with P273G, D298Y, A332R
light: not shown
notes: alteration printed: BB233D/P238D/P271G/A330R; copies: 2 + 2
